Results from US9187762B2, “Compositions and methods comprising sequences having hydroxyphenylpyruvate dioxygenase (HPPD) activity” (PIONEER HI-BRED INTERNATIONAL, INC., priority 2010, dated 2015).

B1: SEQ ID NO: 394 (protein)
chain: MPPTPTTAAATGAAVAAASAEQAAFRLVGHRNFVRVNPRSDRFHTLAFHHVELWCADAASAAGRFSFGLGAPLAARSDLSTGNTAHASLLLRSGALAFLFTAPYAHGADAATASLPSFSAAEARRFAADHGLAVRAVALRVADAEDAFRASVAAGARPAFEPVELGLGFRLAEVELYGDVVLRYVSYPDDADASFLPGFVGVTSPGAADYGLRRFDHIVGNVPELAPAAAYFAGFTGFHEFAEFTAEDVGTTESGLNSMVLANNAENVLLPLNEPVHGTKRRSQIQTYLDHHGGPGVQHMALASDDVLRTLREMQARSAMGGFEFMAPPAPEYYDGVRRRAGDVLTEAQIKECQELGVLVDRDDQGVLLQIFTKPVGDRPTLFLEIIQRIGCMEKDEKGQEYQKGGCGGFGKGNFSQLFKSIEDYEKSLEAKQAAAAQGS
modifications: Sorghum bicolor
B2: GE010083 (protein)
chain: MPPTPTTAAATGAAVAAASAEQAAFRLVGHRNFVRVNPRSDRFHTLAFHHVELWCADAASAAGRFSFGLGAPLAARSDLSTGNTAHASLLLRSGALAFLFTAPYAHGADAATASLPSFSAAEARRFAADHGLAVRAVALRVADAEDAFRASVAAGARPAFEPVELGLGFRLAEVELYGDVVLRYVSYPDDADASFLPGFVGVTSPGAADYGLRRFDHIVGNVPELAPAAAYMAGFTGFHEFAEFTAEDVGTTESGLNSMALANNAENVLLPLNEPVHGTKRRSQIQTYLDHHGGPGVQHIALASDDVLRTLREMQARSAMGGFEFLPPPLSEYYDGVRRCAGDVLTEAQIKECQELGVMVDRDDQGVLLQIFTKPVGDRPTLFLEIIQRIGCMEKDEKGQEYQKGGCGGFGKGNFGQLFKSIEDYEKSLEAKQAAAAQGS
modifications: HPPD variant
B3: SEQ ID NO: 2 (protein)
chain: MAIPMCNEIQAQAQAQAQAQPGFKLVGFKNFVRTNPKSDRFQVNRFHHIEFWCTDATNASRRFSWGLGMPIVAKSDLSTGNQIHASYLLRSGDLSFLFSAPYSPSLSAGSSAASSASIPSFDAATCLAFAAKHGFGVRAIALEVADAEAAFSASVAKGAEPASPPVLVDDRTGFAEVRLYGDVVLRYVSYKDAAPQAPHADPSRWFLPGFEAAASSSSFPELDYGIRRLDHAVGNVPELAPAVRYLKGFSGFHEFAEFTAEDVGTSESGLNSVVLANNSETVLLPLNEPVYGTKRKSQIETYLEHNEGAGVQHLALVTHDIFTTLREMRKRSFLGGFEFMPSPPPTYYANLHNRAADVLTVDQIKQCEELGILVDRDDQGTLLQIFTKPVGDRPTIFIEIIQRIGCMVEDEEGKVYQKGACGGFGKGNFSELFKSIEEYEKTLEAKRTA
modifications: Glycine max
B4: GE010082: Glycine max variant HPPD with maize motif substitutions, SEQ ID NO: 458 (protein)
chain: MPIPMCNEIQAQAQAQAQAQPGFKLVGFKNFVRTNPKSDRFQVNRFHHIEFWCTDATNASRRFSWGLGMPIVAKSDLSTGNQIHASYLLRSGDLSFLFSAPYSPSLSAGSSAASSASIPSFDAATCLAFAAKHGFGVRAIALEVADAEAAFSASVAKGAEPASPPVLVDDRTGFAEVRLYGDVVLRYVSYKDAAPQAPHADPSRWFLPGFEAAASSSSFPELDYGIRRLDHAVGNVPELAPAVAYMAGFSGFHEFAEFTAEDVGTSESGLNSMALANNSETVLLPLNEPVYGTKRKSQIETYLEHNEGAGVQHLALVTHDIFTTLREMRKRSFLGGFEFMPSPPPTYYANLHNCAADVLTVDQIKQCEELGIMVDRDDQGTLLQIFTKPVGDRPTIFIEIIQRIGCMVEDEEGKVYQKGACGGFGKGNFGELFKSIEEYEKTLEAKRTAGLTVNS
modifications: HPPD variant

Legend:
S. bicolor HPPD [1] = test: HPPD activity, coupled assay with HGD; substrate saturation kinetics; type: biochemical, Sorghum bicolor; settings: sorghum HPPD, wt and improved
Experimental: (§1) HPPD activity was measured by placing an aliquot (e.g., 6 ul) of the substrate HPP at 50-fold the desired final concentration into the wells of a low UV-absorbing assay plate. Reactions were started by adding a mixture (e.g., 294 ul) containing 25 mM Hepes, pH 7, 2 mM ascorbate, 10 uM FeSO4, 1 to 100 uM HPP, 50 nM HGD and 5 to 240 nM HPPD. Absorbance at 320 nm was monitored continuously in a plate-reading spectrophotometer (Spectramax, Molecular Devices).
(§2) The catalytic performance of wild-type HPPD and variants generated by shuffling was assessed by determining the substrate saturation parameters. The Michaelis-Menten kinetics protocol of the Spectramax software was customized for HPP concentrations ranging from 3.33 uM to 100 uM, or up to 1 mM if required. Reaction rates were measured as described above for each concentration of HPP. The software returns values of KM and Vmax using the Lineweaver-Burke transformation of the Michaelis-Menten equation.
(§3) The amino acid substitutions identified during the shuffling and mutagenesis of the maize HPPD gene can be made at analogous positions in other HPPD proteins to improve their insensitivity toward HPPD-inhibiting herbicides. The sequences of native and improved maize HPPD were aligned with those of sorghum (Genbank accession number XP002453359) and soybean (Genbank accession number ABQ96868), and the motif substitutions were designed accordingly, as shown in FIG. 14. The genes designed for improvement were synthesized commercially, inserted into vector pVER7062 and expressed, purified and evaluated as in Example 1.

S. bicolor HPPD [2] = test: ON/OFF rate ratio insensitivity parameters of HPPD with maize motif substitutions; type: biochemical, Sorghum bicolor; settings: sorghum HPPD
Experimental: (§4) [formula] Higher KD (reduced affinity or increased insensitivity) can be attained with a numerically smaller ON rate, a larger OFF rate or both. […] The ratio of the reaction rate with inhibitor to that without inhibitor during the 70 to 90 second interval of the reaction was termed the “ON rate ratio”. […] Incubations with the same concentrations of enzyme but no mesotrione were done in parallel. After 1 hr at room temperature, 5 to 10 ul of the enzyme-inhibitor complex was dispensed into the wells of the assay plate. Reactions were started with the addition of 290 to 295 ul of 25 mM Hepes, pH 7, 2 mM ascorbate, 10 uM FeSO4, 100 uM HPP and 50 nM HGD. The reactions were monitored at 320 nm for 12 min. Reaction velocity accelerates as inhibitor is released from the enzyme until a steady state is reached, during which the reaction velocity is constant. The ratio of the steady state rate in mixtures containing mesotrione (or other herbicidal inhibitor) to the initial velocity of mixtures lacking inhibitor is termed the “OFF rate ratio”. Another parameter to record is the time span required for the reactions with inhibitor to reach the steady state. […] It is not certain that the steady state attained in the OFF rate reactions actually represents an equilibrium where OFF rates are now equal to ON rates. Because substrate and inhibitors bind in the same site, the high concentration of substrate present may competitively trap the inhibitor and prevent it from binding again. To be sure that improvement in ON rates is being taken into account, the ON and OFF rate ratios were multiplied together and the product is termed the “insensitivity parameter”.

G. max HPPD = test: as above; type: biochemical, Glycine max; settings: for OFF ratio / ON ratio / ON × OFF Value / ON × OFF Fold vs wt: soy HPPD
Experimental: as §4

soybean HPPD = test: HPPD activity, coupled assay with HGD; substrate saturation kinetics (KM, kcat); type: biochemical; settings: soy HPPD, wt and improved
From the text: HPPD catalyzes the conversion of 4-hydroxyphenylpyruvate (HPP) to homogentisate. See, FIG. 1. […] However, the product of the ensuing reaction in tyrosine metabolism, maleylacetoacetate, absorbs strongly at 320 nm. Furthermore, the enzyme catalyzing that reaction is also a dioxygenase having similar mechanism and buffer requirements as HPPD, making homogentisate dioxygenase (HGD) an ideal partner in a coupled assay, as shown.
The HDG gene from Pseudomonas aeruginosa (Amaya (2004) Arch Biochem Biophys 421, 135-142) was cloned into pVER7062 and electroporated into E. coli strain BL21(DE3). The enzyme was produced by methods similar to those described for HPPD. The purified enzyme has a KM for homogentisate of 23 uM and a kcat of 100/sec, properties highly suited for instantly converting the homogentisate produced by HPPD to maleylacetoacetate.
as §1, §2, §3

| Molecule | Km (S. bicolor HPPD [1]) [µM] | kcat (S. bicolor HPPD [1]) | OFF ratio (S. bicolor HPPD [2]; Mesotrione) | ON ratio (S. bicolor HPPD [2]; Mesotrione) | ON × OFF Value (S. bicolor HPPD [2]; Mesotrione) | OFF ratio (S. bicolor HPPD [2]; Tembotrione) | ON ratio (S. bicolor HPPD [2]; Tembotrione) | ON × OFF Value (S. bicolor HPPD [2]; Tembotrione) | OFF ratio (G. max HPPD; Mesotrione) | ON ratio (G. max HPPD; Mesotrione) | ON × OFF Value (G. max HPPD; Mesotrione) | OFF ratio (G. max HPPD; Tembotrione) | ON ratio (G. max HPPD; Tembotrione) | ON × OFF Value (G. max HPPD; Tembotrione) | Km (soybean HPPD) [µM] | kcat (soybean HPPD) | other results |
| --- | --- | --- | --- | --- | --- | --- | --- | --- | --- | --- | --- | --- | --- | --- | --- | --- | --- |
| B1 | 4.9 | 246 | 0.199 | 0.227 | 0.045 | 0.032 | 0.210 | 0.0067 |  |  |  |  |  |  |  |  |  |
| B2 | 5.35 | 87 | 0.436 | 0.634 | 0.277 | 0.071 | 0.730 | 0.0517 |  |  |  |  |  |  |  |  | ON × OFF Fold vs wt (S. bicolor HPPD [2]; Mesotrione): 6.13; ON × OFF Fold vs wt (S. bicolor HPPD [2]; Tembotrione): 7.71 |
| B3 |  |  |  |  |  |  |  |  | 0.135 | 0.299 | 0.040 | 0.044 | 0.102 | 0.0044 | 2 | 83 |  |
| B4 |  |  |  |  |  |  |  |  | 0.219 | 0.444 | 0.097 | 0.070 | 0.321 | 0.0224 | 14 | 13 | ON × OFF Fold vs wt (G. max HPPD; Mesotrione): 2.41; ON × OFF Fold vs wt (G. max HPPD; Tembotrione): 5.10; improvement of insensitivity vs native protein (G. max HPPD; mesotrione): 2.41 fold; improvement of insensitivity vs native protein (G. max HPPD; tembotrione): 5.10 fold |
